Experimental data: patent publication US6706762
Several values for one entry are separate records, joined by “and”; a condition that tells them apart may be missing. Equal entries are not always repeated.

Target: GAL-C-SMRT (yeast) (UniProt P04386)
Assay: cell-based or functional assay

Row | Substance | UAS reporter expression, mammalian two-hybrid | fold lower sensitivity to ATRA than the SMRT/RARα interaction, mammalian two-hybrid
1 | VP16-PLZF (from UniProt Q05516 1-673) | 25 fold | 
2 | VP-PML-RARα (from UniProt P29590 1-552; P10276 61-462) |  | 100 fold and 200 fold
